Common to all, as to format: in vivo, Aedes aegypti
For data set [1], the system named is Ae. aegypti larvae (Rockefeller and Rio de Janeiro strains). Kind of data set: Temephos larval susceptibility bioassay (WHO methodology). As for the experimental part: (§1) First (L1), Second (L2) or Third (L3) instar larvae were treated (in groups of 100 larvae) in a final volume of 3 mL of autoclaved water with sodium channel (AAEL008297), PgP (AAEL010379), Ago3 (AAEL007823), and Aub (AAEL007698) dsRNA (0.5 μg/μL), or AAEL005112, AAEL003446, AAEL007815 and AAEL002202 dsRNA (0.1 μg/μL). The control group was kept in 3 ml sterile water only. Larvae were soaked in the dsRNA solutions for 24 hours at 27° C., and were then transferred into new containers (200 larvae/1000 mL of chlorine-free tap water), which were also maintained at 27° C., and provided […] lab dog/cat diet (Purina Mills) suspended in water as a source of food on a daily basis. After soaking procedure, the larvae were reared until third instar and divided in […] with 10-20 larvae in each cup (final volume of 100 mL) or were divided immediately after soaking. Six replicas were treated with the lethal concentration 50 (0.00573 ppm) of temephos and 2 replicas with ethanol only (control group). Mortality was recorded after 24 and 48 hours. See Flowcharts 1 and 2 (FIGS. 1 and 2, respectively).
Susceptibility tests were carried out according to the methodology proposed by the World Health Organization (WHO). In order to characterize the status of Temephos resistance in Ae. aegypti (Rio de Janeiro) strain, the present inventors first determined the lethal concentration LC99 (concentration able to kill 99% of the larvae) using the susceptible strain (Rockfeller) (see FIG. 5: 0.01401 ppm). Then, bioassays with the Rio de Janeiro strain were performed using a diagnostic concentration of 0.0282 ppm of Temephos, which corresponded to twice the lethal concentration, 99% (LC99), determined for this susceptible strain. According to WHO, when the field population is treated with the diagnostic dose and the mortality rates are equal to or higher than 98%, the population is considered susceptible, between 80% and 98%, with alterations in susceptibility, and below 80%, resistant [WHO (1981) WHO/VBC/81.807]. […]

Data set [2] concerns Ae. aegypti female mosquitoes (Rockefeller and Rio de Janeiro strains). Kind of data set: CDC bottle bioassay with deltamethrin, adult females. Particulars: 2 μg/mL deltamethrin; for mortality at 2 µg/mL: Aedes aegypti, read-out: mortality at diagnostic dosage. The method, then:
FIGS. 14A-C are graphs illustrating the dose-response curves for 3- to 5-day-old Aedes aegypti female mosquitoes on insecticide-susceptible Rockefeller strain (FIG. 14A) and on insecticide-resistant Rio de Janeiro strain (FIG. 14B). Mosquitoes were exposed to different concentrations of deltamethrin in 250-mL glass bottles for up to 24 hours and the percentage of mortality for each time point is shown. FIG. 14C, comparison of the mortality rates of female mosquitoes from Rockefeller (Rock) and Rio de Janeiro (RJ) strains exposed to 2 μg/mL of deltamethrin for different time-points. Data represent mean values of three replicates with standard deviation.
Bottles were prepared following the Brogdon and McAllister (1998) protocol [Brogdon and McAllister (1998) Emerg Infect Dis 4:605-613]. Fifteen-twenty non-blood-fed females from each site were introduced in 250 mL glass bottles impregnated with different concentrations of deltamethrin (Sigma-Aldrich) in 1 ml acetone. Each test consisted of four impregnated bottles and one control bottle. The control bottle contained acetone with no insecticide. At least three tests were conducted for each insecticide and population. Immediately prior to use, all insecticide solutions were prepared fresh from stock solutions. At 15, 30 and 45 min intervals, the number of live and dead mosquitoes in each bottle was recorded. The mortality criteria included mosquitoes with difficulties flying or standing on the bottle's surface. Mosquitoes that survived the appropriate dose for insecticide were considered to be resistant [Brogdon and McAllister (1998), supra].
Therefore, it was concluded that 36.05% of the mosquitoes in this population (RJ) are resistant to deltamethrin.

Data set [3] deals with A. aegypti 3rd instar larvae, Rockefeller strain. The experiment in a line: Larvae feeding with food-containing dsRNA and bioassay with diflubenzuron. The following applies: diflubenzuron 2.5 μg/L. As for the experimental part: FIG. 9A, 3rd instar larvae of Rockefeller strain were exposed to diflubenzuron (DBZ) pestanal larvicide (2.5 μg/L) in plastic cups containing 100 mL of dechlorinated tap water and fed simultaneously with dsRNA-containing food. Larval mortality was determined each 3 days. FIG. 9B, larvae were soaked with Sodium channel dsRNAs and exposed to diflubenzuron as described in FIG. 9A. Effects of diflubenzuron on adult emergence is shown as the percentage of emergence inhibition (100-100(T/C), where T is emergence (%) in DBZ-treated groups and C is emergence (%) in control groups. *p<0.01 (ANOVA, bar=S.D, n=4).
3rd instar larvae of Rockefeller strain were exposed to diflubenzuron (DBZ) pestanal larvicide (2.5 μg/L) in plastic cups containing 100 mL of dechlorinated tap water and fed simultaneously with dsRNA-containing food targeting PgP (FIG. 10A) or dsRNA-containing food targeting Sodium channel (FIG. 10B). Larval mortality was determined each 3 days. […]
Third instar larvae (in groups of 10 larvae) were exposed to one concentration (2.5 μg/L) of diflubenzuron pestanal (Sigma) in a final volume of 100 mL of chlorine-free tap water. […] The inhibition of emergence (%) was calculated according to the following formula: 100-100(T/C) where T is percent emergence in treated groups and C is percent emergence in control groups [Mulla et al. (1974) Proc. Papers Calif. […]

For data set [4], the system named is P-glycoprotein (AAEL010379) mRNA. Kind of data set: qPCR of P-glycoprotein mRNA after dsRNA treatment of larvae. The method, then:
as §1
(§2) Approximately 1000 ng first-strand cDNA obtained as described previously was used as template. The qPCR reactions were performed using SYBR® Green PCR Master Mix (Applied Biosystems) following the manufacturer's instructions. […] Raw quantification cycle (Cq) values normalized against those of the tubulin and S7 standards were then used to calculate the relative expression levels in samples using the 2^−ΔΔCt method previously described [Livak & Schmittgen (2001) Methods. […]
(§3) Approximately 1000 ng first-strand cDNA obtained as described previously was used as template. […] Raw quantification cycle (Cq) values normalized against those of the tubulin and S7 standards were then used to calculate the relative expression levels in samples using the 2^−ΔΔCt method [Livak & Schmittgen, (2001) Methods. […]
For orientation: Real-time PCR tracks product formation cycle by cycle.

The test system of data set [5] is Argonaute-3 (AAEL007823) mRNA. Kind of data set: qPCR of Ago-3 mRNA after dsRNA treatment of larvae. The method, then: as §1, §2, §3
[6] abbreviates: 24 and 48 hours after end of 24 hour soaking of 3rd instar larvae.
Where [7] appears, read: soaked as third instar larvae, reared until adult stage.

Results on 4 molecules are retold here after patent US20170051285A1, “COMPOSITIONS AND METHODS OF USING SAME FOR REDUCING RESISTANCE TO MOSQUITO LARVICIDES” (priority 2014, published 2017).

“Also recorded” adds a separate entry of the source. Read-outs that look alike come from different tables or passages of the source.

Take `COP(=S)(OC)Oc1ccc(Sc2ccc(OP(=S)(OC)OC)cc2)cc1` [Temephos]: in data set [1] (Aedes aegypti, read-out: mortality at diagnostic concentration), the mortality at 0.0282 ppm is 60%. In addition, the “lethal concentration 50” value in data set [1] (LC50 used to treat third instar larvae, strain not stated) was 0.00573 ppm. The “lethal concentration LC99 (concentration able to kill 99% of the larvae)” value in data set [1] (susceptible strain (Rockfeller)) is reported as 0.01401 ppm.

For `CC1(C)[C@H](C(=O)O[C@H](C#N)c2cccc(Oc3ccccc3)c2)[C@@H]1C=C(Br)Br` [deltamethrin], the mortality at 2 µg/mL in data set [2] (Rio de Janeiro strain) came out at 64%; in data set [2] (Rockfeller strain), 100%. Besides, the “mosquitoes of the population resistant to deltamethrin” value in data set [2] (Rio de Janeiro (RJ) population) turned out to be 36.05%.

B1: P-glycoprotein dsRNA: dsRNA targeting Ae. aegypti P-glycoprotein gene AAEL010379, SEQ ID NO: 184 (nucleic acid)
chain: TGGAAAAGTTGACATTGACGGGATCACGACAACTGATTTCCAGCTTGGCCGCATACGTTCACAAATGGGTCTCGTATCGCAAGAACCTGTTCTGTTTGATCGCACCATCGCGGAAAATATTGCTTATGGTGACAACACTCGCGAGATAAGCATGCCGGAGATAATCGAGGCATCCAAAATGGCAAACATTCACGAATTCATCGTCAATCTACCGAAGGGGTATGACACTAGCCTAGGAACCAAAGGAGCTCAATTGTCTGGTGGCCAAAAGCAACGTATTGCTATAGCTCGTGCTTTGGTTAGAAATCCACGAATCC
modifications: double stranded RNA
B1: in data set [3] (fed agarose cubes with 20 μg dsRNA once a day for 4 days), the “viability of mosquito larvae 4 days after treatment with DBZ (FIGS. 10A-B)” value is “reduced significantly the viability of mosquito larvae”. Besides, the “susceptibility to diflubenzuron: larvae mortality and adult emergence (FIGS. 9A-B)” value in data set [3] (fed dsRNA-containing food simultaneously) is reported as “increases its susceptibility to diflubenzuron insecticide”. The “PgP mRNA levels after the end of dsRNA treatment (FIG. 19A)” value in data set [4] (setting [6]) is reported as “decreased mRNA levels”. Also, the “P-glycoprotein mRNA expression by qPCR (FIG. 7)” value in data set [4] (larvae soaked 24 hours in dsRNA, temephos bioassay at third instar, versus water) was “induced gene silencing; also recorded: decrease in mRNA expression level”. Further, in data set [4] (setting [7]), the “PgP mRNA expression in adult mosquitoes (FIG. 20A)” value is on record as “reached normal levels”.

B2: Ago-3 dsRNA: dsRNA targeting Ae. aegypti Argonaute-3 gene AAEL007823, SEQ ID NO: 185 (nucleic acid)
chain: CCCCGTCGACGGCCACGAAGTTACGATCAAGATCATTTACAAGCGCAAACAGCGAATGAGCGAGAACATTCAATTCTACAACATTCTCTTCCAACGCATTATGAAAGTCCTGAAGATGGTCGAGATGGGTCGTAAGAACTTTGACCCCTCGGCCCCGAAACTGATTCCGCAGCATCGTCTGGAGATCTGGCCGGGATACGTTAGCGCTGTGGACGAATATGAGGGCGGCTTGATGTTGAATCTCGACGTGTCCCATCGTGTGCTGCTCCAGACGACGGTTTTGGATCACATCCGAACGCTGGCAAGGGCCAATCCCCAAGATTACAAAAACATGGCCACCAAATCGCTGCTGGGAGCCGTTATATTGACCCGA
modifications: double stranded RNA
B2: the “Ago3 mRNA levels after the end of dsRNA treatment (FIG. 19B)” value in data set [5] (setting [6]) is “decreased mRNA levels”. In data set [5] (RJ third instar larvae soaked 24 hours, after treatment with Temephos, versus water), the “Ago-3 mRNA expression by qPCR (FIG. 8B)” value is “induced gene silencing; also recorded: reduction in the mRNA levels”. The “Ago3 mRNA expression in adult mosquitoes (FIG. 20B)” value in data set [5] (setting [7]) is reported as “reached normal levels”.
